Measured values: article PMC2561067 (2008)

B1: trypsin (protein)
chain: SSGTSYPDVLKCLKAPILSDSSCKSAYPGQITSNMFCAGYLEGGKDSCQGDSGGPVVCSGKLQGIVSWGSGCAQKNKPGVYTKVCNYVSWIKQTIASN

How the values were obtained:
trypsin = molecular target: B1; assay: ITC
BPTI = BPTI (Bos taurus, UniProt P00974); assay: ITC

Binder	Kd (trypsin) [nM]	Kd (BPTI) [nM]
HWTX-XI (protein) IDTCRLPSDRGRCKASFERWYFNGRTCAKFIYGGCGGNGNKFPTQEACMKRCAKA	0.23	–
B1	–	6.57
